These results are taken from US20230382992A1 (Bristol-Myers Squibb, published 2023).

The test addresses CD64 (UniProt P12314 16-288, limits assumed). Description: assay not described.

Chain of CD64 (P12314 16-288 limits assumed): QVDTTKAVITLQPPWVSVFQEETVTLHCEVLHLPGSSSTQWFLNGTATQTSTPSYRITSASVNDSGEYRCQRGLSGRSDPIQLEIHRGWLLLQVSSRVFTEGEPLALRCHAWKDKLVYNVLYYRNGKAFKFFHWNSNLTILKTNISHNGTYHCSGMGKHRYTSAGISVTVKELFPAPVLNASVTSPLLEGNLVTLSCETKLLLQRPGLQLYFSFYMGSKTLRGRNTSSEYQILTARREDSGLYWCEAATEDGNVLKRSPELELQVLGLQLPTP

B1: TIM3.18.IgG1.3 (antibody)
heavy: QLQLQESGPGLVKPSETLSLTCTVSGGSISSRSYYWGWIRQPPGKGLEWIGSIYYSGFTYYQPSLKSRVTISVDTSKNQFSLKLSSVTAADTAVYYCATGGPYGDYAHWFEPWGQGTLVTVSSASTKGPSVFPLAPSSKSTSGGTAALGCLVKDYFPEPVTVSWNSGALTSGVHTFPAVLQSSGLYSLSSVVTVPSSSLGTQTYICNVNHKPSNTKVDKRVEPKSCDKTHTCPPCPAPEAEGAPSVFLFPPKPKDTLMISRTPEVTCVVVDVSHEDPEVKFNWYVDGVEVHNAKTKPREEQYNSTYRVVSVLTVLHQDWLNGKEYKCKVSNKALPAPIEKTISKAKGQPREPQVYTLPPSREEMTKNQVSLTCLVKGFYPSDIAVEWESNGQPENNYKTTPPVLDSDGSFFLYSKLTVDKSRWQQGNVFSCSVMHEALHNHYTQKSLSLSPGK
light: not shown
notes: Effectorless IgG1.3f (L234A, L235E, G237A); It was radioiodinated for the Scatchard assays; also called TIM3.18 (13A3) IgG1.3f (N60Q/D101E)
In the case of B1, the binding result is listed as “no binding”.
